From paper PMC9076864, “Cryo-EM structures of thylakoid-located voltage-dependent chloride channel VCCN1” (Nature Communications, 2022)

Target: the molecule itself
Assay: cryo-EM structure; single-particle cryo-EM of the channel reconstituted in MSP1E3D1/SoyPC nanodiscs; 50 mM Tris pH 8.0, 150 mM NaCl; C5 symmetry imposed

B1: Malus domestica VCCN1, N-terminally truncated "wild-type" construct (natural protein)
chain: MPNPSPPSSSSPVQTLISILRIIPDWSDRTQERGMRQHRTLYDHEKWMHHRSSYRHLRHLLSSLSSRVILSLIPPVIAFTLVAVVIASYNTAVALDLLPGIFPLLRSSSLPYQLTAPALALLLVFRTEASYSRFEEGRKAWTEVIAGANDFARQIISSVETSGDAQLKKALLQYIVAFPVALKCHVIYGSDIARDLQNLLEVDDLLVVLNSKHRPGCIIQFISRSLQLLKLEESRRIMLQSKISCFHEGIGICEQLIGTPIPLSYTRLTSRFLVLWHLTLPIILWDDCHWIVVPATFISAASLFCIEQVGVLIEEPFPMLALDDLCNSVRNNVQEALASEKLIRARLAAKGRIQSEQQFQNGQPRPENLYFQ
B1 was tested, and the “stoichiometry N” value was 5.
